Read-outs that look alike come from different tables or passages of the source.
What was measured:
[1] = biological target: T1, JAK2 catalytic domain, JAK2JH1 (UniProt O60674 840-1128); test: steady-state enzyme kinetics
[2] = biological target: T1, JAK2 catalytic domain, JAK2JH1; test: cell-based or functional assay
[3] = biological target: T1, JAK2 catalytic domain, JAK2JH1; test: steady-state enzyme kinetics; remark: listed apart in the source

T1 sequence (O60674 840-1128): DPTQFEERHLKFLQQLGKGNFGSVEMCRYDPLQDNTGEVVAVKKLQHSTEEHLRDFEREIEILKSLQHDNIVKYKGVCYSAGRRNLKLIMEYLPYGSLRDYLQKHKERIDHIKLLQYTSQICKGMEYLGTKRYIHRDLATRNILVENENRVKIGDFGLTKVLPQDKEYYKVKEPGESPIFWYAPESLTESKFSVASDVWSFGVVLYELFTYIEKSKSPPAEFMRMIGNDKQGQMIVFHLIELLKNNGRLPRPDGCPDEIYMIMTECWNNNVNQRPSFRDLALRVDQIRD

- Ki [1]: 1200 ± 300 nM
- IC50 of inhibition of the kinase domain's activity (Figure 2A) [2]: 1500 nM
- Ki [3]: 1500 ± 700 nM
B1: SOCS3_(22–225)ΔPEST in complex with elongins B and C (complex)
chain 1: LKTFSSKSEYQLVVNAVRKLQESGFYWSAVTGGEANLLLSAEPAGTFLIRDSSDQRHFFTLSVKTQSGTKNLRIQCEGGSFSLQSDPRSTQPVPRFDCVLKLVHHYMGSGSGSGSAYYIYSGGEKIPLVLSRPLSSNVATLQHLCRKTVNGHLDSYEKVTQLPGPIREFLDQYDAPL
chain 2: MDVFLMIRRHKTTIFTDAKESSTVFELKRIVEGILKRPPDEQRLYKDDQLLDDGKTLGECGFTSQTARPQAPATVGLAFRADDTFEALCIEPFSSPPELPDVMKPQDSGSSANEQAVQ
chain 3: MYVKLISSDGHEFIVKREHALTSGTIKAMLSGPGQFAENETNEVNFREIPSHVLSKVCMYFTYKVRYTNSSTEIPEFPIAPEIALELLMAANFLDC
